Reference: the MegaScale stability set (Tsuboyama et al. 2023)

B1: EHEE_rd4_0086 (parent)
chain: EIHIRTNGEEQARKVYKMLAKRNYDVKIEQHNGQWVVTAS
B2: EHEE_rd2_0601 (parent)
chain: TYTYKLTDEEASRRAEDEWRNRGYDVRVRNNNGTWEVEVR

Variants of: B1
Assay: folding stability dG (cDNA display proteolysis); higher = more stable
Settings: PBS, room temperature

Variant	folding stability dG [kJ/mol]
IIHIRTNGEEQARKVYKMLAKRNYDVKIEQHNGQWVVTAS	10.4
YIHIRTNGEEQARKVYKMLAKRNYDVKIEQHNGQWVVTAS	10.5
VIHIRTNGEEQARKVYKMLAKRNYDVKIEQHNGQWVVTAS	10.3
WIHIRTNGEEQARKVYKMLAKRNYDVKIEQHNGQWVVTAS	10.7
AIHIRTNGEEQARKVYKMLAKRNYDVKIEQHNGQWVVTAS	8.72
KIHIRTNGEEQARKVYKMLAKRNYDVKIEQHNGQWVVTAS	9.61
HIHIRTNGEEQARKVYKMLAKRNYDVKIEQHNGQWVVTAS	10.3
SIHIRTNGEEQARKVYKMLAKRNYDVKIEQHNGQWVVTAS	8.7
QIHIRTNGEEQARKVYKMLAKRNYDVKIEQHNGQWVVTAS	9.07
LIHIRTNGEEQARKVYKMLAKRNYDVKIEQHNGQWVVTAS	9.92
PIHIRTNGEEQARKVYKMLAKRNYDVKIEQHNGQWVVTAS	7.99
FIHIRTNGEEQARKVYKMLAKRNYDVKIEQHNGQWVVTAS	10.5
NIHIRTNGEEQARKVYKMLAKRNYDVKIEQHNGQWVVTAS	7.55
RIHIRTNGEEQARKVYKMLAKRNYDVKIEQHNGQWVVTAS	9.57
MIHIRTNGEEQARKVYKMLAKRNYDVKIEQHNGQWVVTAS	9.6
GIHIRTNGEEQARKVYKMLAKRNYDVKIEQHNGQWVVTAS	7.69
TIHIRTNGEEQARKVYKMLAKRNYDVKIEQHNGQWVVTAS	9.66
DIHIRTNGEEQARKVYKMLAKRNYDVKIEQHNGQWVVTAS	7.18
EIHKRTNGEEQARKVYKMLAKRNYDVKIEQHNGQWVVTAS	-0.13
EIHPRTNGEEQARKVYKMLAKRNYDVKIEQHNGQWVVTAS	-1.82
EIHMRTNGEEQARKVYKMLAKRNYDVKIEQHNGQWVVTAS	3.58
EIHSRTNGEEQARKVYKMLAKRNYDVKIEQHNGQWVVTAS	-0.305

Variant	folding stability dG [kJ/mol]
EIHRRTNGEEQARKVYKMLAKRNYDVKIEQHNGQWVVTAS	0.439
EIHYRTNGEEQARKVYKMLAKRNYDVKIEQHNGQWVVTAS	8.88
EIHHRTNGEEQARKVYKMLAKRNYDVKIEQHNGQWVVTAS	1.85
EIHFRTNGEEQARKVYKMLAKRNYDVKIEQHNGQWVVTAS	9.03
EIHLRTNGEEQARKVYKMLAKRNYDVKIEQHNGQWVVTAS	4.69
EIHTRTNGEEQARKVYKMLAKRNYDVKIEQHNGQWVVTAS	-0.393
EIHWRTNGEEQARKVYKMLAKRNYDVKIEQHNGQWVVTAS	6.89
EIHGRTNGEEQARKVYKMLAKRNYDVKIEQHNGQWVVTAS	-3.99
EIHVRTNGEEQARKVYKMLAKRNYDVKIEQHNGQWVVTAS	6.1
EIHQRTNGEEQARKVYKMLAKRNYDVKIEQHNGQWVVTAS	0.134
EIHARTNGEEQARKVYKMLAKRNYDVKIEQHNGQWVVTAS	0.0418
EIHDRTNGEEQARKVYKMLAKRNYDVKIEQHNGQWVVTAS	-1.08
EIHERTNGEEQARKVYKMLAKRNYDVKIEQHNGQWVVTAS	-0.251
EIHNRTNGEEQARKVYKMLAKRNYDVKIEQHNGQWVVTAS	-0.849
EIHILTNGEEQARKVYKMLAKRNYDVKIEQHNGQWVVTAS	8.72
EIHIKTNGEEQARKVYKMLAKRNYDVKIEQHNGQWVVTAS	7.31
EIHISTNGEEQARKVYKMLAKRNYDVKIEQHNGQWVVTAS	6.07
EIHIQTNGEEQARKVYKMLAKRNYDVKIEQHNGQWVVTAS	6.37
EIHIMTNGEEQARKVYKMLAKRNYDVKIEQHNGQWVVTAS	8.29
EIHIHTNGEEQARKVYKMLAKRNYDVKIEQHNGQWVVTAS	8.21
EIHIPTNGEEQARKVYKMLAKRNYDVKIEQHNGQWVVTAS	4.99
EIHIGTNGEEQARKVYKMLAKRNYDVKIEQHNGQWVVTAS	2.9

Variant	folding stability dG [kJ/mol]
EIHIETNGEEQARKVYKMLAKRNYDVKIEQHNGQWVVTAS	5.61
EIHINTNGEEQARKVYKMLAKRNYDVKIEQHNGQWVVTAS	4.93
EIHICTNGEEQARKVYKMLAKRNYDVKIEQHNGQWVVTAS	11.9
EIHIFTNGEEQARKVYKMLAKRNYDVKIEQHNGQWVVTAS	9.87
EIHIITNGEEQARKVYKMLAKRNYDVKIEQHNGQWVVTAS	10
EIHIATNGEEQARKVYKMLAKRNYDVKIEQHNGQWVVTAS	6.41
EIHIDTNGEEQARKVYKMLAKRNYDVKIEQHNGQWVVTAS	1.97
EIVIRTNGEEQARKVYKMLAKRNYDVKIEQHNGQWVVTAS	11.9
EIPIRTNGEEQARKVYKMLAKRNYDVKIEQHNGQWVVTAS	0.301
EITIRTNGEEQARKVYKMLAKRNYDVKIEQHNGQWVVTAS	10.1
EIEIRTNGEEQARKVYKMLAKRNYDVKIEQHNGQWVVTAS	8.38
EIYIRTNGEEQARKVYKMLAKRNYDVKIEQHNGQWVVTAS	9.88
EIKIRTNGEEQARKVYKMLAKRNYDVKIEQHNGQWVVTAS	9.46
EIAIRTNGEEQARKVYKMLAKRNYDVKIEQHNGQWVVTAS	6.87
EIFIRTNGEEQARKVYKMLAKRNYDVKIEQHNGQWVVTAS	9.21
EIDIRTNGEEQARKVYKMLAKRNYDVKIEQHNGQWVVTAS	2.57
EILIRTNGEEQARKVYKMLAKRNYDVKIEQHNGQWVVTAS	8.94
EIMIRTNGEEQARKVYKMLAKRNYDVKIEQHNGQWVVTAS	9.31
EISIRTNGEEQARKVYKMLAKRNYDVKIEQHNGQWVVTAS	8.39
EIIIRTNGEEQARKVYKMLAKRNYDVKIEQHNGQWVVTAS	11.7
EIGIRTNGEEQARKVYKMLAKRNYDVKIEQHNGQWVVTAS	2.77
EIQIRTNGEEQARKVYKMLAKRNYDVKIEQHNGQWVVTAS	8.63

Variant	folding stability dG [kJ/mol]
EIRIRTNGEEQARKVYKMLAKRNYDVKIEQHNGQWVVTAS	10
EIWIRTNGEEQARKVYKMLAKRNYDVKIEQHNGQWVVTAS	8.89
EINIRTNGEEQARKVYKMLAKRNYDVKIEQHNGQWVVTAS	6.97
EVHIRTNGEEQARKVYKMLAKRNYDVKIEQHNGQWVVTAS	5.92
EKHIRTNGEEQARKVYKMLAKRNYDVKIEQHNGQWVVTAS	3.22
ENHIRTNGEEQARKVYKMLAKRNYDVKIEQHNGQWVVTAS	0.1
EYHIRTNGEEQARKVYKMLAKRNYDVKIEQHNGQWVVTAS	6.91
ETHIRTNGEEQARKVYKMLAKRNYDVKIEQHNGQWVVTAS	3.61
ELHIRTNGEEQARKVYKMLAKRNYDVKIEQHNGQWVVTAS	6.74
EEHIRTNGEEQARKVYKMLAKRNYDVKIEQHNGQWVVTAS	1.08
EPHIRTNGEEQARKVYKMLAKRNYDVKIEQHNGQWVVTAS	1.49
EGHIRTNGEEQARKVYKMLAKRNYDVKIEQHNGQWVVTAS	-0.00418
EQHIRTNGEEQARKVYKMLAKRNYDVKIEQHNGQWVVTAS	0.946
EMHIRTNGEEQARKVYKMLAKRNYDVKIEQHNGQWVVTAS	5.77
EDHIRTNGEEQARKVYKMLAKRNYDVKIEQHNGQWVVTAS	0.0418
EAHIRTNGEEQARKVYKMLAKRNYDVKIEQHNGQWVVTAS	1.37
EHHIRTNGEEQARKVYKMLAKRNYDVKIEQHNGQWVVTAS	4.11
ESHIRTNGEEQARKVYKMLAKRNYDVKIEQHNGQWVVTAS	0.602
EFHIRTNGEEQARKVYKMLAKRNYDVKIEQHNGQWVVTAS	9.2
EWHIRTNGEEQARKVYKMLAKRNYDVKIEQHNGQWVVTAS	9.89
ERHIRTNGEEQARKVYKMLAKRNYDVKIEQHNGQWVVTAS	4.09

Variants of: B2
Assay: as above
Settings: PBS, room temperature

Variant	folding stability dG [kJ/mol]
TYTYKLTDEEASRRAEDEWRNRGYDVRVRNNNGTWEVEMR	-2.24
TYTYKLTDEEASRRAEDEWRNRGYDVRVRNNNGTWEVEWR	-2.1
TYTYKLTDEEASRRAEDEWRNRGYDVRVRNNNGTWEVEAR	-2.16
TYTYKLTDEEASRRAEDEWRNRGYDVRVRNNNGTWEVEFR	0.201
TYTYKLTDEEASRRAEDEWRNRGYDVRVRNNNGTWEVECR	6.1
TYTYKLTDEEASRRAEDEWRNRGYDVRVRNNNGTWEVEHR	-2.98
TYTYKLTDEEASRRAEDEWRNRGYDVRVRNNNGTWEVELR	2.46
TYTYKLTDEEASRRAEDEWRNRGYDVRVRNNNGTWEVEIR	5.88
TYTYKLTDEEASRRAEDEWRNRGYDVRVRNNNGTWEVETR	-4.08
TYTYKLTDEEASRRAEDEWRNRGYDVRVRNNNGTWEVEYR	-1.8
TYTYKLTDEEASRRAEDEWRNRGYDVRVRNNNGTWEVERR	-3.3
TYTYKLTDEEASRRAEDEWRNRGYDVRVRNNNGTWEVWVR	3.51
TYTYKLTDEEASRRAEDEWRNRGYDVRVRNNNGTWEVNVR	2.34
TYTYKLTDEEASRRAEDEWRNRGYDVRVRNNNGTWEVVVR	6.74
TYTYKLTDEEASRRAEDEWRNRGYDVRVRNNNGTWEVQVR	5.03
TYTYKLTDEEASRRAEDEWRNRGYDVRVRNNNGTWEVRVR	3.23
TYTYKLTDEEASRRAEDEWRNRGYDVRVRNNNGTWEVYVR	4.32
TYTYKLTDEEASRRAEDEWRNRGYDVRVRNNNGTWEVTVR	7.13
TYTYKLTDEEASRRAEDEWRNRGYDVRVRNNNGTWEVSVR	5.14

Variant	folding stability dG [kJ/mol]
TYTYKLTDEEASRRAEDEWRNRGYDVRVRNNNGTWEVEVQ	4.58
TYTYKLTDEEASRRAEDEWRNRGYDVRVRNNNGTWEVEVF	6.9
TYTYKLTDEEASRRAEDEWRNRGYDVRVRNNNGTWEVEVA	4.33
TYTYKLTDEEASRRAEDEWRNRGYDVRVRNNNGTWEVEVD	2.87
TYTYKLTDEEASRRAEDEWRNRGYDVRVRNNNGTWEVEVM	5.92
TYTYKLTDEEASRRAEDEWRNRGYDVRVRNNNGTWEVEVE	3.02
TYTYKLTDEEASRRAEDEWRNRGYDVRVRNNNGTWEVEVL	5.98
TYTYKLTDEEASRRAEDEWRNRGYDVRVRNNNGTWEVEVP	0.0669
TYTYKLTDEEASRRAEDEWRNRGYDVRVRNNNGTWEVEVY	6.65
TYTYKLTDEEASRRAEDEWRNRGYDVRVRNNNGTWEVEVI	6.31
TYTYKLTDEEASRRAEDEWRNRGYDVRVRNNNGTWEVEVS	7.15
TYTYKLTDEEASRRAEDEWRNRGYDVRVRNNNGTWEVEVK	5.41
TYTYKLTDEEASRRAEDEWRNRGYDVRVRNNNGTWEVEVN	3.97
TYTYKLTDEEASRRAEDEWRNRGYDVRVRNNNGTWEVEVV	5.54
TYTYKLTDEEASRRAEDEWRNRGYDVRVRNNNGTWEVEVG	3.6
TYTYKLTDEEASRRAEDEWRNRGYDVRVRNNNGTWEVEVT	6.45
TYTYKLTDEEASRRAEDEWRNRGYDVRVRNNNGTWEVEVW	7.52
TYTYKLTDEEASRRAEDEWRNRGYDVRVRNNNGTWEVEVC	7.11
TYTYKLTDEEASRRAEDEWRNRGYDVRVRNNNGTWEVEVH	4.62
